We go through 41 sequences from the nanobody polyreactivity screen of Harvey et al. (2022).

This data set is described as follows: yeast display, Sf9 membrane polyspecificity reagent, FACS + sequencing; frameworks hold sequencing errors. In outline: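 Polyreactivity labels are assigned by the sorting gate from which each nanobody was recovered. The gates were low and high (top ~1%), set on anti-HA fluorescence for expression and streptavidin fluorescence for reagent binding. Before sorting, galactose-induced (36–48 hours) yeast display cells were stained for 1 hour at 4 °C with 10% biotinylated, detergent-solubilized Sf9 membrane reagent.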
“QVQLVESGGGLFQAGGSLRLSCDASGRNFSGNAMGMYRQAPGKERELVAAITWSGSSTFYADSVKGLFTISRDYAKNTVYFQMNSLKPEDTAVYYCAVDSSSPVRPHSDEDYWGQGTQVTVSS”: the “polyreactivity (PSR sort gate)” value was “low polyreactivity”. Regarding “QVQLVESGGGLFQAGGSLRLSSAASGSIFHPYAMGWYRQAPGKERELVAAISSSTGRTYYADYVKGRFTISRDNAKNTVYLQMNSLKPEDTAVYYCAARKKYSEFDYWGQGTQVTVSS”, the “polyreactivity (PSR sort gate)” value was “high polyreactivity”. For “QVQLVESGGGLFQAGGSLRLTCAASGSTISDYAIGWYRQAPGKERELVAAISTRGGSTYYADSVKGRFTISRDNAKNTVYLQMNSLKPEDTAVYYCAKGGYVPKLEYWGQGTQVTVSS” the value was “high polyreactivity”; for “QVQLVESGGGLFQAGRSLRLSCAASGITFGYYGMGWYRQAPVKERELVATISQRGGSTYYAVSVKGRFTISRDNAKNTVYLQMNSLKPEDTAFYYSNADAYRYYDYDLLFHYDYWGQGTQVTVSS”, “low polyreactivity”; for “QVQLVESGGGLFQEGGSLRLSCAASGIISKYYAMGWYRQAPGKERELVAAITRSGTSTYYADSVKGRFTISRDNAKNSVYLQMNSLKPEDTAVYYCAAVSGGRTPRYDYWGQGTQVTVSS”, “high polyreactivity”. The value for “QVQLVESGGGLFQEGGSLRLSCAASGRIFSYYAMGWYRQAPGKERELVAGISSGGRTNYADSVKGRFTISRDNAKNTVYLQMNSLKPEDTAVYYCIARSFSLYWAYNYWGQGTQVTVSL” was “high polyreactivity”.

Turning to “QVQLVESGGGLFQEGGSLRLSCAASGSIFSYYAMGWYRQAPGKERELVAAISTYGGRTYYADSVKGRFTISRDNAKNTVYLQMNSLKPEDTAVYYCAGPVRWKNYDYWGQGTPVTVSS”, the “polyreactivity (PSR sort gate)” value is “high polyreactivity”. With “QVQLVESGGGLFQTGGSLRLSRAASGRTFRYYVMGWYRQAPWKESELVAAISWSGGRTNYADSVKGRFTISRDNAKNTVYLQMNCLKPEDTSVYYCIAAGPALRRYDYWGQGTQVTVSS”, the “polyreactivity (PSR sort gate)” value is on record as “high polyreactivity”. The value for “QVQLVESGGGLGQAGGSLGLSCAASGRTFYVNAMGWYRQAPGKERELVAAISWSGGSTYYADSVKGRFTISRDNAKNTVYLPINSLNPEDTAVYYCAAEDIEDYEYWGQGTQVTVSS” was “low polyreactivity”. The value for “QVQLVESGGGLGQAGGSLRLICAASGSIFYSNAMGWYRQATGKERELVAAISWNGGRTYYADSVKGRFTISRDTAKNTVYLQMNSLKPEDTAVYFWAAKYRNRYDFWGQGTQVTVSS” was “low polyreactivity”; that for “QVQLVESGGGLGQAGGSLRLICAASGSTFRHYAMGWYRPAPRKERELVAVISWGGTSTYYADSVKGRFTISRDNAKNTVYLQMNSLKPEDTAVYYCNKAYFPIFKGYEMYYWGQGTQVTVSS” was “low polyreactivity”; that for “QVQLVESGGGLGQAGGSLRLSCAASGFIFGPYAMGWYRQARGKETELVAAISSSGGSTSYADSVKGRFTISRDNAKNTVYLQMNSLKPEDTAVYYCAARGRYRFYSNNYDYWGQGTQVTVSS” was “high polyreactivity”. Turning to “QVQLVESGGGLGQAGGSLRLSCAASGGTFYYYAMGWSRQAPGKERELVAAITESGGSTYYGDSVKGRFTISRDNAKNTVNLQMNSLKPEDTAVYYCAAETYYGDDGYWGQGTQVTVSS”, the “polyreactivity (PSR sort gate)” value is “low polyreactivity”. For “QVQLVESGGGLGQAGGSLRLSCAASGIIFYPNAMGWYRQAPGKERELVAAISCRSGSTYYADSVKGRITISRDNEKNTVYLQMNSLKPEDTSVYYCAADRRRSYIWRYDYWGQGTQVTVSS” the value was “low polyreactivity”; for “QVQLVESGGGLGQAGGSLRLSCAASGITYDGYAMGWYRQAPGKERELVAAITYSGGRTYYADSVKGRFTISRDNAKNTVYLQMNSLKPEDTAVYYCAVVSRRLYEYDYWGQGTQVTVSS”, “high polyreactivity”.

Turning to “QVQLVESGGGLGQAGGSLRLSCAASGNTFYWNAMGWYRQAPGKERELVAAISTTGVSSYYADSVKGRFTISRDNAKNSVYLQMNSLKPEDTAVYYCAGEIIGYHTIYDYWGQGTQVTVSS”, the “polyreactivity (PSR sort gate)” value is “low polyreactivity”. For “QVQLVESGGGLGQAGGSLRLSCAASGSTFQIYAMGWYREAPGKEWEFVAAITSSSSTNYADSVKGRFTISRDNAKNTVYLQMNSLKPEDTAVYYCAADVSWRSNWYDYWGQGTQVTVSS”, the “polyreactivity (PSR sort gate)” value was “low polyreactivity”. Turning to “QVQLVESGGGLGQAGGSLRLSCAASGYTFRNYVMGWYRPAPGKERQLVATISRGGRTNYADSVKGRFTISRDNAKNTVYLQMNSLKPEDTAVYYCNADWSRVPYRYDYWGQGTQVTVSS”, the “polyreactivity (PSR sort gate)” value is “high polyreactivity”. For “QVQLVESGGGLGQAGGSLRLSSAASGRTVSTNDMGWYRHAPGKERELVAAIDFDSDSTYYADSVKGRFTISRDNAKNTVYLQMHSLKPEDTAVYYCAAQYFSYGESYEYWGQGTHVTVSS” the value was “low polyreactivity”. The value for “QVQLVESGGGLGQAGGSLRLSSAASGSIFWFYAMGWYRQAPGKERELVAAITSSGGTDYADSVKGRFSISRDNAKNTVYLQMNSLKPEDSAVYYCAADRIGGPGSYLYDYWGQGTQVTVSS” was “low polyreactivity”; that for “QVQLVESGGGLHQAGGSLRLSCAASGSISGYNPMGWYRQAPGKESELVAVNTTDGSTNYADSVKGRFTISRDNAKNTVYLQMNSLKPEDTAVYYCNTHDGWRLLWEYDYWGQGTQVTVSS” was “low polyreactivity”. Take “QVQLVESGGGLLQAGGRLRLSCAASGFTSTRYAMGWYRQAPGKERELVAAISYGGGDTYYADSVKGRFTISRDNAKNTVYIQMNSMKPEDTAVYYCSSRLRSRNTRLYHWGQGTQGTVSS”: the “polyreactivity (PSR sort gate)” value is listed as “high polyreactivity”.

Regarding “QVQLVESGGGLLQAGGSLRISCAASGRIFYAKAMGRYRQAPGKERELVAGISSGGITNYADSVKGRFTISRDNAKNTVYLQMNSLKPEDTAVYYCAVESWNRWRNRNDYWGQGTQVSVSS”, the “polyreactivity (PSR sort gate)” value was “low polyreactivity”.

For the sequence “QVQLVESGGGLLQAGGSLRLICAASGRIFTYNAMGWYRQAPGKERELVAAISRRGGTTYYADSVKGRFTISRDNAKNTVYLQMNSLKPEDTAVYYCAALLYYATDDDYWGQGTQVTVSS”, the “polyreactivity (PSR sort gate)” value is “high polyreactivity”. The value for “QVQLVESGGGLLQAGGSLRLSCAASGFIFGGNAMGWYREAPGKERELVAAIRSGGSTYYADSVKVRFTISRDNAKNTVYLQMISLKPLDTAVDYCAVRLRYAYRARGNYWGQGTQVTVSS” was “low polyreactivity”. The value for “QVQLVESGGGLLQAGGSLRLSCAASGFIFYDYAMGWYRQAPGKERELVAAITKPGGSTYYADSEKGRFTISRDNAKNTVYLQMNSLKPEDTAGYYCAADVMYYHKLTYGYDYWGQGTQVTVSS” was “high polyreactivity”; that for “QVQLVESGGGLLQAGGSLRLSCAASGFSFLCYAMGWYRQEPRKERELVASITYGGDSTYYADSVKGRFTISRDNAKNTVYLQMNSLKPEDTAGYYCNARPSYWWGGRLYGYWGQGTQVTVSS” was “high polyreactivity”; that for “QVQLVESGGGLLQAGGSLRLSCAASGGIIYYNAMGWSRQAPGKERELVAAIRYRGGSTYYADSVKGRFTISRDNEKNTVYLQMNSLKPEYTAVYYCAVDNLRRGLSLYDTLDYWGQGTQVTVSS” was “low polyreactivity”. The value for “QVQLVESGGGLLQAGGSLRLSCAASGGIKSENAMGWYRQAPRKERELVAVITDGGSTNYADSVKGRFTISRDNAKNTVYLQMNSLKPEDTAVYYCAKDTYLELWLDPLYDYWGQGTQVTVSS” was “low polyreactivity”; that for “QVQLVESGGGLLQAGGSLRLSCAASGIIIVGYAMGWYRQAPGKERELVAAISRSSGSTYYADSVKGRFTISRDNAKNTVYLQMNSLKPEDTAVYYCARYNQYYSTEDYWGQGPQVTVSS” was “high polyreactivity”. Regarding “QVQLVESGGGLLQAGGSLRLSCAASGITFYLYAMGWYRQAPGKVRELVAAITKSGASTYYADSVKGRFTISRDNAKNTVYLQMNSLKPEDTAVYYCAAVLQSGYGYEYWGQGTQVTVSS”, the “polyreactivity (PSR sort gate)” value is on record as “high polyreactivity”.

In the case of “QVQLVESGGGLLQAGGSLRLSCAASGLIFQNYAMGSYRQAPGKEREFVATITSSGTSTYYADSVKGRFTISRDNAKNTVYLQMNSLKPEDTAVYYCAATGYWWEYDYWGQGTQVTVSS”, the “polyreactivity (PSR sort gate)” value was “high polyreactivity”. The value for “QVQLVESGGGLLQAGGSLRLSCAASGLIFYDNMGWYRQAPGKERELVAAISSTGGSTSYADSVKGRFTISRDNAKNTVYLLMNSLKPEDTAVYYCAADSYPAYLGFVGFDYWGQGTQLTVSS” was “low polyreactivity”; that for “QVQLVESGGGLLQAGGSLRLSCAASGNTFVKYTMGWYRQAPGKERELVAAITWSGGSTSYADSVKGRFTISRDNAKNTVYLQMNSLKPEDTAVYYCAAAWSHSRWDTHDYWGQGTQVTVSS” was “low polyreactivity”. The value for “QVQLVESGGGLLQAGGSLRLSCAASGRTFATYAMGWYRQAPGKERELVAAITSGGSTNYADSVKGRFTISRDNAKNTVYLQMNSLKPEDTAVYYCNAYKTNRGSGPWYTGRYDYWGQGTQVTVSS” was “low polyreactivity”; that for “QVQLVESGGGLLQAGGSLRLSCAASGRTFGSYAKGWYRQAPGKERELVAGIRSDDITHYADSVKGRFTISRDNAKNTVYLQMNSLKPEDTAVYYCAKDYKCIATEGAFDYWGQGTQVTVSS” was “low polyreactivity”; that for “QVQLVESGGGLLQAGGSLRLSCAASGRTFNKYAMGWYRKAPGIVRELVAAINYSGGRTYYADSVKGRFTISRDNAKNSVYLEMNSLKPEDTAVFYCAATPTFFVWQGYNYWGQGTQVTVSS” was “low polyreactivity”. For “QVQLVESGGGLLQAGGSLRLSCAASGRTFTNSAMGWYRQEPGKERELVAGISSSGGRTYYAVSVKGRFTISRDNAMNTVYLQMNSLKAEDTAVYYCAAQHSRVYRRMDYWGQGTQVSVSS” the value was “high polyreactivity”. Take “QVQLVESGGGLLQAGGSLRLSCAASGRTLGIYAMGWYRQAPWKERELVAAITLSGSDTYYADSVKGRFTISRDNAKNTVYLQMNSLKPEDTAVYDCAAKTYGGYGKYGYWGQGTQVTVSS”: the “polyreactivity (PSR sort gate)” value is recorded as “low polyreactivity”. The value for “QVQLVESGGGLLQAGGSLRLSCAASGSTFNKYTMGWYIKAPGKERELVAAITSGDSTYYADSVKGRFTISRDNAKYTVYLQMNSLKTEDTAVYYCAKSLRAYRHVIYGKPFYSWGQGTQVTVSS” was “low polyreactivity”; that for “QVQLVESGGGLLQAGGSLRLSCAASGSTFYDNAMGWYRQAPGKERELVAAISYSGASTYYADSVKGRFTISRDNEKNTVYLQMNSLKPEDTAVYYCAKTFYSLYWGQGTQVTGSS” was “low polyreactivity”.
